Measurements taken from patent publication US9551711B2, “Compositions and methods for detecting nitration of PKG-1α and methods of use thereof” (Augusta University Research Institute, Inc., priority 2013, dated 2017).
Non-standard residues stand in square brackets, D forms with d. Tyr(3-NO2) = N[C@@H](Cc1ccc(O)c([N+](=O)[O-])c1)C(=O)O

Experiments:
[1] = biological target: PKG-1α; assay: [3H]cGMP binding assay on immunopurified PKG-1α; parameters: species or system human; settings: [3H]cGMP 0-200 nM, 100 ng immunopurified enzyme; average affinity of the two cGMP-binding sites; + SIN1 = cells exposed to SIN-1 500 μM, 30 min
Description: HEK-293T cells were transiently transfected with either the WT-PKG-1α or the Y247FPKG-1α cDNA using Effectene transfection reagent (Qiagen), according to the manufacturer's instructions. Briefly, the cells were split the day before the transfection to low cell densities (25%) and were transfected 24 h later. After 48 h of transfection, the cells were incubated in DMEM serum free media containing 1% FBS and antibiotics for 4 h and then treated with or without SIN-1 (500 μM), for 30 min. This method produced an approximate 70% transfection efficiency of HEK-293T cells, as measured using green fluorescent protein vectors. […]
The batches of supernatant were pooled, and 2 μg of anti-PKG-1α antibody per mg of protein were added to the extract and rocked at 4° C. […] After 15 min of agitation at 4° C., the beads were pelleted by centrifugation, and the supernatant containing the PKG-1α protein was collected, quantified using Bradford reagent, and stored at −80° C.
To assay the binding of cGMP to WT- and Y247F-PKG-1α the enzymes were saturated with cGMP by incubating 50 μl aliquots of the diluted PKG constructs for 60 min at room temperature with 50 μl of [^3H]cGMP and 150 μl of cGMP-binding assay mixture (25 mM K2HPO4, 25 mM KH2PO4, 1 mM EDTA, pH 6.8, 2M NaCl, 200 μM 3-isobutyl-1-methylxanthine). […] The dissociation constant (Kd) values were determined using GraphPad Prism graphics. […]

[2] = system: PKG-1α; assay: PKG catalytic activity, Michaelis-Menten kinetics for cGMP; assay type: biochemical, human; settings: ATP 125 μM, cGMP 0-10 μM; + SIN1 = SIN-1 500 μM, 30 min
Description: Total PKG activity was determined using a non-radioactive immunoassay in cell lysates, according to the manufacturer's directions. Briefly, protein samples were diluted in kinase reaction buffer containing Mg^2+ and ATP (125 μM) in the presence or absence of 8-Br cGMP (10 μM) and incubated in a 96 well plate pre-coated with a PKG substrate containing threonine residues phosphorylated by PKG.
After incubation for 30 min at 30° C. to allow the phosphorylation of the bound substrate, an HRP conjugated anti-phosphothreonine specific antibody was added to convert a chromogenic substrate to a colorimetric substrate that was subsequently read spectrophotometrically at 450 nm. The change in absorbance reflected the relative activity of PKG in the sample. The results were reported as pmols of phosphate incorporated into the GST-G substrate fusion protein by active PKG in the sample in the presence or absence of cGMP (10 μM) per minute at 30° C. per μg of protein (pmol/min/μg). […] The kinetic constants were determined using nonlinear regression (curve fit) analysis (GraphPad Prism Software Inc.).
To determine the Michaelis-Menten constant (Km) for cGMP, the kinase assay was performed, as mentioned above; however, the cGMP concentration was titrated from 0-10 μM, while the ATP concentration remained constant at 125 μM.

Kd [1]: 32.1 ± 5.5 nM
B1: WT-PKG-1α + SIN1: WT-PKG-1α immunopurified from cells exposed to SIN-1 (500 μM, 30 min) (protein)
chain: SELEEDFAKILMLKEERIKELEKRLSEKEEEIQELKRKLHKCQSVLPVPSTHIGPRTTRAQGISAEPQTYRSFHDLRQAFRKFTKSERSKDLIKEAILDNDFMKNLELSQIQEIVDCMYPVEYGKDSCIIKEGDVGSLVYVMEDGKVEVTKEGVKLCTMGPGKVFGELAILYNCTRTATVKTLVNVKLWAIDRQCFQTIMMRTGLIKHTEYMEFLKSVPTFQSLPEEILSKLADVLEETHYENGE[Tyr(3-NO2)]IIRQGARGDTFFIISKGTVNVTREDSPSEDPVFLRTLGKGDWFGEKALQGEDVRTANVIAAEAVTCLVIDRDSFKHLIGGLDDVSNKAYEDAEAKAKYEAEAAFFANLKLSDFNIIDTLGVGGFGRVELVQLKSEESKTFAMKILKKRHIVDTRQQEHIRSEKQIMQGAHSDFIVRLYRTFKDSKYLYMLMEACLGGELWTILRDRGSFEDSTTRFYTACVVEAFAYLHSKGIIYRDLKPENLILDHRGYAKLVDFGFAKKIGFGKKTWTFCGTPEYVAPEIILNKGHDISADYWSLGILMYELLTGSPPFSGPDPMKTYNIILRGIDMIEFPKKIAKNAANLIKKLCRDNPSERLGNLKNGVKDIQKHKWFEGFNWEGLRKGTLTPPIIPSVASPTDTSNFDSFPEDNDEPPPDDNSGWDIDF
Vmax [2]: 0.28 ± 0.01 pmol/min/µg
